According to US20160327558:

## Human cathepsin B
Probe 5 (FITC-LRSR-AOMK)
  in vitro protease activity measurements (zRR-AMC cleavage): also abrogated cathepsin B activity even though slightly less efficient
z-VRPR-FMK
  in vitro protease activity measurements (zRR-AMC cleavage): also abrogated cathepsin B activity even though slightly less efficient
